The target in test [1] is hMC1-R (human) (UniProt Q01726). The experiment in a line: cell-based or functional assay.
Test [2] has as its target hMC3-R (human) (UniProt P41968). The test can be described thus: cell-based or functional assay.
The target in test [3] is hMC4-R (human) (UniProt P32245). The experiment in a line: cell-based or functional assay.
Test [4] deals with hMC5-R (human) (UniProt P33032). The experiment in a line: cell-based or functional assay.
The target of test [5] is human melanocortin receptor subtype 1 (hMC1-R) (human) (UniProt Q01726). The test can be described thus: [125I]-NDP-α-MSH competition, membranes.
Chain of human melanocortin receptor subtype 1 (hMC1-R) (human) (Q01726 whole entry): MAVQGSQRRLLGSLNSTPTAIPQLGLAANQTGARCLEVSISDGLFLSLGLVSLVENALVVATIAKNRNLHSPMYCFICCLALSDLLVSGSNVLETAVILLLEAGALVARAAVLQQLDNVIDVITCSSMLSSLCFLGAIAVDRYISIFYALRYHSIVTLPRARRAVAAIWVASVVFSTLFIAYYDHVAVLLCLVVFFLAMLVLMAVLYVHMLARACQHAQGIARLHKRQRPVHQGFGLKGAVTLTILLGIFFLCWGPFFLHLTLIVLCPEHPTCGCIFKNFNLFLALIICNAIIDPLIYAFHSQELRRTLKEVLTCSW
For test [6], the target named is human melanocortin receptor subtype 3 (hMC3-R) (human) (UniProt P41968). The test can be described thus: [125I]-NDP-α-MSH competition, membranes.
Chain of human melanocortin receptor subtype 3 (hMC3-R) (human) (P41968 whole entry): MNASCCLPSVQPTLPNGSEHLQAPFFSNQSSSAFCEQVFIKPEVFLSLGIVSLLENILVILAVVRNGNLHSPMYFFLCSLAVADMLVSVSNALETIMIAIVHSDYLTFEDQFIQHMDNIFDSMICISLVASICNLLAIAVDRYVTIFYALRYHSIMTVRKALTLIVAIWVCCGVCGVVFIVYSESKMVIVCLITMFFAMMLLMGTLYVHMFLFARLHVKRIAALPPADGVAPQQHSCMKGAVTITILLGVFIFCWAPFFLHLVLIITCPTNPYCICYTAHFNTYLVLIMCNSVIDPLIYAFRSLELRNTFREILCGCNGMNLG
In test [7] the target is human melanocortin receptor subtype 4 (hMC4-R) (human) (UniProt P32245). The test can be described thus: [125I]-NDP-α-MSH competition, membranes.
Chain of human melanocortin receptor subtype 4 (hMC4-R) (human) (P32245 whole entry): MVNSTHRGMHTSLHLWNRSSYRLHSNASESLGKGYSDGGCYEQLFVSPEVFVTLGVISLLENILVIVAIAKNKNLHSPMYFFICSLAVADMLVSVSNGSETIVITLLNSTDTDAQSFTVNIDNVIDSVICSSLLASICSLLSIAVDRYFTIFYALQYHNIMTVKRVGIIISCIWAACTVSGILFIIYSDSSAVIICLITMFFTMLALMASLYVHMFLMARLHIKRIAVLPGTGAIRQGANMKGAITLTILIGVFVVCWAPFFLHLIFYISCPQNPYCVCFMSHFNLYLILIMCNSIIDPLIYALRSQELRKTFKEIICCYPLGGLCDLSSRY
The target in test [8] is human melanocortin receptor subtype 5 (hMC5-R) (human) (UniProt P33032). The test can be described thus: [125I]-NDP-α-MSH competition, membranes.
Chain of human melanocortin receptor subtype 5 (hMC5-R) (human) (P33032 whole entry): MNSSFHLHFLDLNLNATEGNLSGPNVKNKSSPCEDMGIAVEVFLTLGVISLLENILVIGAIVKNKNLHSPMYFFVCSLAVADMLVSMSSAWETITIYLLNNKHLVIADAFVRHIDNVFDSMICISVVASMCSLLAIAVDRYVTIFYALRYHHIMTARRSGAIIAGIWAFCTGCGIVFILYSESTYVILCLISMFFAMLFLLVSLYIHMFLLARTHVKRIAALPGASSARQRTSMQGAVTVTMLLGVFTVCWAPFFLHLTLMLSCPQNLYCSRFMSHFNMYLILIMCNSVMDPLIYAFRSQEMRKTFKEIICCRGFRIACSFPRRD
Test [9] has as its target hMC5-R (human), P33032. The test can be described thus: competition with [125I]-NDP-α-MSH, CHO-K1 membranes.

Bridge positions count the residues as written; N and C are the ends. Square brackets hold non-standard residues; d marks the D form. Ends that are not written are not given here. Orn = NCCC[C@H](N)C(=O)O; Dab = NCC[C@H](N)C(=O)O; Dap = NC[C@H](N)C(=O)O Bounds are passed on as bounds.

Chain of hMC4-R (human) (P32245 whole entry): as the sequence (P32245 whole entry) above
Chain of hMC3-R (human) (P41968 whole entry): as the sequence (P41968 whole entry) above
Chain of hMC1-R (human) (Q01726 whole entry): as the sequence (Q01726 whole entry) above
Chain of hMC5-R (human) (P33032 whole entry): as the sequence (P33032 whole entry) above
Chain of hMC5-R (human), P33032 (P33032 whole entry): as above

In general, Ki refers to a dissociation constant, usually derived from enzyme kinetics or from competition with a known ligand. With E[dA]H[dF]RW[Dap]-NH2 (lactam 1-7 (inferred); also: hydantoin ring from C(O) with Glu1-D-Ala2) [c[Hydantoin(C(O)-(Glu-D-Ala))-His-D-Phe-Arg-Trp-Dap]-NH2], the cAMP EC50 in test [1] was 56.7 nM; in test [2] it was 18.2 nM; in test [3], 0.182 nM; in test [4], above 10000 nM. The results for the Ki in [5], in [6] and in test [7] were 16.4 nM, 863 nM and 4.97 nM, respectively.

E[dA]H[dF]RW[Dab]-NH2 (lactam 1-7; also: hydantoin ring from C(O) with Glu1-D-Ala2) [c[Hydantoin(C(O)-(Glu-D-Ala))-His-D-Phe-Arg-Trp-Dab]-NH2]: the inhibition constant Ki in [5] stood at 28 nM; in test [6] it was 90.5 nM; in test [7] it was 12.7 nM; in test [8], 877 nM.

Regarding D[dA]H[dF]RW[Orn]-NH2 (lactam 1-7; also: hydantoin ring from C(O) with Asp1-D-Ala2) [c[Hydantoin(C(O)-(Asp-D-Ala))-His-D-Phe-Arg-Trp-Orn]-NH2], the cAMP EC50 in [1] is 56.6 nM; in test [2], 88.6 nM; in [3], 4.5 nM; in test [4], 9300 nM. The inhibition constant (Ki) was 37.7 nM in test [5], 576 nM in [6], 7.81 nM in [7] and 6400 nM in [8].

For D[dA]H[dF]RW[Dap]-NH2 (lactam 1-7; also: hydantoin ring from C(O) with Asp1-D-Ala2) [c[Hydantoin(C(O)-(Asp-D-Ala))-His-D-Phe-Arg-Trp-Dap]-NH2], the cAMP EC50 was 49.3 nM in test [2] and 2.12 nM in [3]. In addition, the inhibition constant Ki in test [5] worked out at 66.6 nM; in test [6], 1820 nM; in [7], 19.9 nM.

In the case of E[dA]H[dF]RWK-NH2 (lactam 1-7 (inferred); also: hydantoin ring from C(O) with Glu1-D-Ala2) [c[Hydantoin(C(O)-(Glu-D-Ala))-His-D-Phe-Arg-Trp-Lys]-NH2], the Ki in test [5] worked out at 72.6 nM; in test [6], 1920 nM; in [7], 45.2 nM.

As for G[dR]C[dA]H[dF]RWC-NH2 (bridge N-2 via C(O) hydantoin; disulfide 3-9; not fully specified) [Hydantoin(C(O)-(Gly-D-Arg))-c(Cys-D-Ala-His-D-Phe-Arg-Trp-Cys)-NH2], the Ki in test [5] was 3.51 nM; in [6] it was 29.2 nM; in test [7], 6.04 nM; in [8] it was 914 nM.

The molecule Ac-RC[dA]H[dF]RWC-NH2 (disulfide 2-8) [Ac-Arg-c(Cys-D-Ala-His-D-Phe-Arg-Trp-Cys)-NH2] came in with an inhibition constant Ki in test [9] of 430 nM.

On to E[dA]H[dF]RW[Orn]-NH2 (lactam 1-7 (inferred); also: hydantoin ring from C(O) with Glu1-D-Ala2) [c[Hydantoin(C(O)-(Glu-D-Ala))-His-D-Phe-Arg-Trp-Orn]-NH2], for which the cAMP EC50 was determined as 39.2 nM in test [2] and 4.94 nM in test [3]. In addition, the Ki was determined as 60.4 nM in test [5], 2840 nM in test [6] and 52.4 nM in test [7].

The values are drawn from patent publication US20120135923A1, “Use of Melanocortins to Treat Dyslipidemia” (IPSEN PHARMA, S.A.S., priority 2009, published 2012).
